Measured values published in PMC6096048, “The Cytochrome bd Complex Is Essential for Chromate and Sulfide Resistance and Is Regulated by a GbsR-Type Regulator, CydE, in Alishewanella Sp. WH16-1”.

T1: CydE (GbsR-type regulator) (Alishewanella sp. WH16-1, UniProt A0ABQ3KUT0 1-187)
T1 sequence: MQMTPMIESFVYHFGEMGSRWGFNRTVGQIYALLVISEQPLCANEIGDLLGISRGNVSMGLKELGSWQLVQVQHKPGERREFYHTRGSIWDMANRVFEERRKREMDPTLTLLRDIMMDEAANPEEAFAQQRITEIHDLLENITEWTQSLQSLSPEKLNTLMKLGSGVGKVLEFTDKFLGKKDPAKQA


Molecular target: T1, CydE (GbsR-type regulator)
Test: EMSA; ethidium bromide stain; EMSA: 20 uL with 2 uL 10x binding buffer (listed as 10 mM Tris pH 7.5, 10 mM EDTA, 1 mM KCl, 1 mM DTT, 50% glycerol, 0.1 mg/mL BSA), 37 C 30 min, 8% native PAGE in 0.5x TGE pH 8.0; footprinting: same mix, DNase I 10 min at room temperature
Details: protein: recombinant; tags: His6 (pET28a); chain copies: 2; (synthesized)

Binder | binding result
CydE binding site 2 (dsDNA) DNA 1: GGGATGCGCATATGCAAAT DNA 2: ATTTGCATATGCGCATCCC | binds
CydE binding site 1 (dsDNA) DNA 1: TATTTCAGAAATTTCTGAAAGTTCA DNA 2: TGAACTTTCAGAAATTTCTGAAATA | binds
